Source: the nanobody polyreactivity screen of Harvey et al. (2022)

Experiment: yeast display, Sf9 membrane polyspecificity reagent, FACS + sequencing; frameworks hold sequencing errors
Method in brief: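 A nanobody's polyreactivity label depends on the gate it was sorted from. Yeast display cells were stained with 10% biotinylated, detergent-solubilized Sf9 membrane reagent for 1 hour at 4 °C, enriched on streptavidin microbeads and sorted by FACS. The low and high (top ~1%) gates were set on anti-HA fluorescence for expression and streptavidin fluorescence for reagent binding.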

Row | Sequence | polyreactivity (PSR sort gate)
1 | QVQLVESGGGLVQAGGSLLLSCAASGSTFSGYAMGWYRQAPRKESDLVASINWSGGSTYADSVKGRFTISRDNAKNTVYLQMNSLKPEDTAVYYCARRWRAYLYGGRDYWGQGTQVTVSS | low polyreactivity
2 | QVQLVESGGGLVQAGGSLRLSCAASGSIFYGYAMGWYRQAPGKERELVAVISRRGDSTYYADSVKGRFTISRDNAKNSVYLQMNSLKPEDTAVYYCASYGSLSKGFGYWGQGTQVTVSS | low polyreactivity
3 | QVQLVESGGGLVQAGGSLRLSCAASGRIFGLYAMGWYRQAPGKERELVAAISWSGGRTYYADSVKGRFTISRDNAKNTVYLQMNSLKPEDTAVYYCAARSYYRSQYGFDFWGQGTQVTVSS | high polyreactivity
4 | QVQLVESGGALVQAGGSLRLSCAASGFTFYKNAMGWYRQAPGKERELVAAISRSAGSTYYADSVKGRFTISRDNAKNTVYFQMNSLKPEDTAVYYCNAVSDVKRYDYWGQGTQVTVSS | high polyreactivity
5 | QVQLVESGGGLVQAGGSLRLSCAASGRTFLYNAMGWYRQAPGKERELVAAIRWSGGTTYYADSVKGRFTISRDNAKNTVYLQMNSLKPEDTAVYYCAARWGPYYGGVRYGYWGQGTQVTVSS | high polyreactivity
6 | QVQLVESGGGIVQAGGSLRLSCAASGRSFGIYAMGWYRQAPGKERELVAGITRGDRTFAYSVKGRFTISRDNAKNTVYLQMNSLKPEDTAVYYCNADVYPYKLALPAGMGYWGQGTQVTVSS | high polyreactivity
7 | QVQLVESGGGLVQAGGSLRLSCAASGSTFKINALGWYIQAPGKERELVALIRASGASTYYADSVKGRFTISRDNAKKTVYLRMNILKPEDTAVYYCAATTRGYKWVGRDYDYWGQGTQVTVSS | high polyreactivity
8 | QVQLVESGGGLVQAGGSLRLSCAASGRTFGRYAMGWYRQAPGKERELVAGISGSVGITYYADSVKGRFTISRDNAKNTVYLQMNSLKPEDTAVYYCAVVARAGHKYDYWGQGTQVTVSS | low polyreactivity
9 | QVQLVESGGGLVQAGGSLRLSCAASGFTFVYYAMGWYRQAPGKEREMVAGISSSDTTSYADSVKGRFTISRDNAKNTVYLQMNSLKPEDTEVYYCATRYWRRYPSTWSYPYYYWGQGTQVTVSS | high polyreactivity
10 | QVQLVESGGGIVQAGGSLRLSCAASGISFLRYAMGWYRQAPGKEREFVAAINSIVGRTYYADSVKGRFTISRDNAKNTVYLQMNSLIPDDTAVYYCAADSNVRYGMDYWGQGTQVTVSS | low polyreactivity
11 | QVQLVESGGCLVQAGGSLRLSCSASGLTFRYYAMGWYRQAPGKESELVAAITRRGSTYYADSVKGRFTISRDIAKNTVYLQMNSLKPEDSAVYYCATVTGFHSSPLRDLDYWGQGTLVTVSS | high polyreactivity
12 | QVQLVESGGCLVQAGGSLRLSCAASRITFRWYAMGWYRQAPGKDRELVAAISRSGASTYYADSVKGRFTISRDNAKNTVYLQMNSLKPEDTAVYYCAKEKTTYYWATYDYWGQGTQVTVSS | high polyreactivity
13 | QVQLVESGGGLVQAGGSLRLSCAASGRTFYYYAMGWYRQAPGKEREFVASISYSGARTYYADSVKGRFTISRDNAKNTVYLQVNSLKPEDTAVYYCDAGYPLGGDYWGQGTQVTVSS | high polyreactivity
14 | QVQLVESGGGSVQAGGSLRISCAASGSIFSLYAMGWYRQAPGKERELVASISSDGSTYYADSVKGRFTISRDNAKNTVYLQMNSLKPEDTAVNYCATAVYSRYSPYAGYYYWGQGTQVTVSS | low polyreactivity
15 | QVQLVESGGGLVQAGGSLRLSCAASGRTFLWNAMGWYRQAPGKERELVAAIRGGTITYYADSVKGRFTISRDNAKNTVYLQMNSLKPEDTAVYYCAATSARGQYYWYCFNGYPYSEFGYWGQGTQVTVSS | low polyreactivity
16 | QVQLVESGGGLVQAGGSLRLSCAASGCTFKYYTMGWYRQAPGKERELGAAINWRGGTTYYADSVKGRFTISRDNAKNTVYLQMNSLKPEDTAVYYSAKVNGPYRGGGYSRFDYWGQGTQVTVST | high polyreactivity
17 | QVQLVESGGGLVQAGGSLRLSCAASGRIFVWYAMGWYRQATGKERELVAAITRGGSTNYADSVKGRFTISRDNAKNTVYLQMNSLKPEDTAVYYCAARSPYRTRNDYWGQGTQVTVSS | low polyreactivity
